Patent publication US20130078237A1 (Amgen, published 2013)

What was measured:
[1] = target: T1, human CD27L on the surface of cells (human, UniProt P32970 1-193); assay: cell-based or functional assay
T1 sequence: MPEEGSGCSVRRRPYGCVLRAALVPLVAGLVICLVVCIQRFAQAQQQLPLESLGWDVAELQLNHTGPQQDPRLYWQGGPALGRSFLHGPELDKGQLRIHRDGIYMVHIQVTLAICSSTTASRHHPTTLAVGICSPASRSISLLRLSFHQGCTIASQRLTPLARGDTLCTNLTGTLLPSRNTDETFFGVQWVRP

[2] = target: T1, human CD27L on the surface of cells; assay: flow cytometry (FACS) on 786-0 cells
[3] = target: T1, human CD27L on the surface of cells; assay: Gyros, native human CD27L on Raji cells
[4] = target: T1, human CD27L on the surface of cells; assay: flow cytometry on 786-0 cells, reference Ab8

B1: Ab8-MCC-DM1 (antibody, human IgG1, kappa, V domains shown)
VH: QVQLVESGGGVVQPGRSLRLSCAASGFTFSSYGMHWVRQAPGKGLEWVAVIWYDGSDKYFADSVKGRFTISRDNSKNTLYLQMNSLRAEDTAVYYCARDGIAGARYVYFDYWGQGTLVTVSS
VL: DIQMTQSPSSLSASVGDRVTITCRASQGISNYLAWFQQKPGKAPKSLIYAASSLQGGVPSKFSGSGSGTDFTLTISSLQPEDFATYYCQQYYNYPFTFGPGTTVDIKR
notes: also called Ab8 antibody drug conjugate; conjugated Ab8
786-0-IC50, Antibody Conc. (nM); cell growth inhibition, CellTiter-Glo, 4 days [1]: 0.11 nM | 786-0-IC50, Drug Conc. (nM); cell growth inhibition, CellTiter-Glo, 4 days [1]: 0.54 nM | EC50 [2]: 0.08 nM | Kd [3]: 0.077 nM | fold change of binding EC50 against Ab8 [4]: 4 fold
